Laboratory results: a protein production outcome set (Wang et al. 2014)

Experiment: label from the status in PepcDB records
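Further: failed if final PepcDB status was selected cloned or expressed and not failed if soluble or beyond.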

**Q.** Which protein production does the source give for “MKTEARILKECLAAAAPNCLHSILPPVVRDDQTRSMNKPMESYYHQFLEEFRLPLTNPVLVFSLVLFIILLAPIVSKRFNIPGTVGLILSGVLIGPHSLNLLEKSSAVELFSTIGLLYILLIAGLELDVNDFRKNRYKSALFGLLTFSIPIVLGYPVCRYLLNYPMSTSLLTASMFATHTLVAYPVVSRMGISKNRTVAITVAGTILSDTAVLILLAVIIGYSRGDINHEFWLHLVIALTLFSAIVFIVLPAIARWFFTKLENEKHAHYIFVLAALFFSAFLAKAAGLEPIVGAFAAGLALNPLIPGSSALMNRIEFIGNSLFIPFFLISVGMLVDLRIILSSPIALIIAALLTFVALAGKWLAALSTQKIFGYSAAHRRLIFGLSSSRAAATIAIALVGYRARILDLNILNAIIILILVTCIVSSLVTEKAAKEIVLEENDAAPEKEHAQGDADEQILLPIAENKPSERVLELAVMIREKRSLNPLTILTVVPNDHEAELNVKKAKKELAPTVDFAASFDTSLNIVATIDYNICSGISRAVKESQSNLIIFDWPSRQGFLGRMINDATESIVECTCKTTMICHLTRPLAIHRRIVVICPPFAEKEKGFGQWLRKMSRLSQELTIPLLFHCDRKSRLAIIETLKTSHSTSPVLYEVFKNFREWEDIASRKLHFREDDIVTFVCARRESISYKPFFDLVPEQLEKHVKDISKIMIYPEQFDSAIIEEEYADVVAPKSFPFGASTIRKIREEISGFMKKNQLQIRKKARGKTAATPKRFGFSRKEP” here?
**A.** failed

**Q.** With “MKTFTLQDAGDIRRLLTERLMQSVNAGTVPWRQNIIRHGVPIHALSGQLFTGINVLLLWQSALQNGLTSNRWLTGDDLRSLGGSIIPGQRPTTIVRYTPSLSLFRVINIEQCDGLPTELRAGWPWPPAPVPGMERIEKWQRASQVPVLYRGQRPAVYLSESDRIELPGSDQGNLDSLTALLVSATGHPTRLGRSCFTGSDVPERDEYLQESLVADVGRAFLAALAGIPLAGTPMWNGELGSDPWILFKSASEAGKAVDWLEKQRLTTLPFDDVQHWQRLAAHLLTTHYGQQLDDTTLVCDSVVHQHLRYNISPGNAVNALARIYDWPRSDVAPALFILELNSVADAFASFSLNPGSLVVHRVASDIDDNKVVLEAPELETLFLPPPFAKSVDEVAANDEEEGGDPDDPGNLAALPWVRNQGRSNPHRATFIRQFQEIAPYENRWTVFSDFIHMSAAALHNRCHFVQEIEDDYLRRIKRYKKADQNRFPLLFNTLVEGMEFSASDFLGSVFMELELGDQRRGQYFTPYSVGYMMAKLQLADGLPALTSGERDFITVSDPACGAGGLIVAMAQAMLEAGFNPQKQMMAVCVDIDPVAAMMAYVQLALCGIPAMVIVGNSLSMEFRQTWRTPFWMMFGWERKWAREQERKAQQKVA” as the sequence, how does the protein production read?
**A.** failed

**Q.** With “MKTINLSIFGLGNVGLNLLRIIRSFNEENRLGLKFNVVFVADSLHSYYNERIDIGKVISYKEKGSLDSLEYESISASEALARDFDIVVDATPASADGKKELAFYKETFENGKDVVTANKSGLANFWPEIMEYARSNNRRIRYEATVAGGVPLFSFIDYSVLPSRIKKFRGIVSLTINYFIRELANKREFDDVLSEATKLGIVEKNYKDDLTGLDAARKSVILCNHLYGSSYRLSDVFYEGILDQDRSFGKNERLVTETGIVNGKPSAESRIKSLDSNDYLLTLGKGSLGYQLQTDTNGTLNVSDLYDGPYETAGAVMNDLVILSMFTV” as the sequence, how does the protein production read?
**A.** not failed

**Q.** For “MKTIQPCSVEDIQSWLIDQFAQQLDVDPDDIDMEESFDNYDLNSSKALILLGRLEKWLGKELNPVLIFNYPTIAQLAKRLGELYL”, which protein production is on record?
**A.** not failed

**Q.** For “MKTIRAILNGKKAGNPELRDAIMKMRDRGVDVQVRVTWESQDMPRLVKEAVTDGIERIVVAGGDGTVNEAASALIHIDHESRPELAIIPLGTANDFATANHIPDSIADALTLAVEGQALSVDCVKANDRCFINVAAAGFGAEVTAETPVELKNFLGGGAYTLTGVVKALGFKPYDGSITIEGGRYDGEMLLGAFCNSRLAGGGQQLAPNAMIDDGLMDLTLVRPFLPHELPKVIEEINNPSEKGEFVKHTRASWLEIDFPNPLPLNLDGEPYHSRKIRFEVQPKSLKLVLPKDCPCVTH”, which protein production is on record?
**A.** failed

**Q.** With “MKTKSWIASLFYSSLCFSSSYAINLHQITITDPIMGSRTITYEQVGEFAVVEGDILIGKAENLKNQGAVITPKVGGSRWPNGVIPYEIAENLPFINKLAILQAIDHWQKNTNLEFVELTSKNRYDYRDYISFIPAEGTTCSSYVGRQGGKQEINLAPRCTTMNTVHEIGHALGMWHEQSRSDRNQYIRIVWENIDEEHKFNFDQHLTDGKDFGEYDYGSIMHYGRFAFSKNGQPTIIPLVDGVEIGQRTHLSEKDIAAVKAMYPET” as the sequence, how does the protein production read?
**A.** failed

**Q.** With “MKTLKVYIPGIKFPSISVTGNYCALNCAHCGRHYLEGMKKITRLNLVDKCVEMEKEGYVGCLLSGGMDSRLKVPLDKFKDEIREIKEKTRLKINAHVGFIDEDDLEWLKYIDVVSLDFVGDNEVIKRVYKIDKTVNDYLKILDILTKERIKVAPHITIGLDFGRIHWEYEAIDLLSEYPIDVLVLNILIPTPGTEMENVKVSMEEALNVVRYAREEFKGELSIGCMRPFGRWREEFDKRAILIGVDRITNPPRKVIEWAKQFRKVEIHFECCVI” as the sequence, how does the protein production read?
**A.** failed

**Q.** Which protein production does the source give for “MKTLQTHRVLQALIGHFTPFLESGITELMINTEQELWLYKVNNTREKRGHALFDKAFLLRFCEQLASFRGLFFDEEHPTLNCSIPFTRYRVSANHFSITTNNQITLNIRVPRLKPLSLEDFTFKASDPKSLKDLALKGHNILISGETSSGKTSLLNALLDCVNKDERVVSVEDSQELDLKAFSNCVGLLVGKQENTRFNYEDALNMAMRLNPDRLIVGEIDTRNAALFLRLGNTGHKGMLSTIHANSAQNTLEALSLNLSMRYMYSLDKDLMRAYFKSAIDVIVHVNRINNERQIAEVLWTKEL” here?
**A.** failed

**Q.** With “MKTNAGRFFEDYRLGETIAHAVPRTVSGGERALYHALYPARHALSSSDEFARACGLPAAPVDELMAFHLVFGKTVPDISLNAVANLGYAEGRWLKPVFPGDTLRAESTVIGLKENSNGASGVVWVRTRGLNQQGEAVLSYVRWVMVRKRDTAAPAPAPTVPELAGSVAASDLVIPEGLSFTDYDLTLAGEPHRWGDYAVGEKIDHVDGVTVEESEHMLATRLWQNTAKVHFDATNRPDGRRLIYGGHVISLARTLSFNGLANAQMIVALNAGAHANPCFAGDTVRAWSEVLDKAETADPGVGALRLRLVAMKHGTEPFVTRSEDGKYLPGVLLDLDYWALVPR” as the sequence, how does the protein production read?
**A.** failed

**Q.** With “MKTNEVLETIKARRSVRAYDRKQIPADDLNAILEAGAYAPSGMHYETWHFTAVCNTVKLEELNERIKGAFAKSDDKHLRERGHSETYCCYYHAPTLVIVSNEPKQWWAGMDCACAIENMFLAATSLGIASCWINQLGTTCDDPEVRAYLTSLGVPENHKVYGCVALGYKAEGALLKEKTVKAGTITIVE” as the sequence, how does the protein production read?
**A.** not failed

**Q.** With “MKTPTRVSFEKKIHTPPSGDRDAERSPPKKFLRGLSGKVFRKTPEFKKQQMPTFGYIEESQFTPNLGLMMSKRGNIPKPLNLSKPISPPPSLKKTAGSVASGFSKTGQLSALQSPVNITSSNKYNIKATNLTTSLLRESISDSTTMCDTLSDINLTVMDEDYRIDGDSYYEEDSPTFMISLERNIKKCNSQFSPKRYIGEKCLICEESISSTFTGEKVVESTCSHTSHYNCYLMLFETLYFQGKFPECKICGEVSKPKDKDIVPEMVSKLLTGAGAHDDGPSSNMQQQWIDLKTARSFTGEFPQFTPQEQLIRTADISCDGFRTPRLSNSNQFEAVSYLDSPFLNSPFVNKMATTDPFDLSDDEKLDCDDEIDESAAEVWFSKTGGEHVMVSVKFQEMRTSDDLGVLQDVNHVDHEELEEREKEWKKKIDQYIETNVDKDSEFGSLILFDKLMYSDDGEQWVDNNLVILFSKFLVLFDFEEMKILGKIPRDQFYQVIKFNEDVLLCSLKSTNIPEIYLRFNENCEKWLLPKWKYCLENSSLETLPLSEIVSTVKELSHVNIIGALGAPPDVISAQSHDSRLPWKRLHSDTPLKLIVCLNLSHADGELYRKRVLKSVHQILDGLNTDDLLGIVVVGRDGSGVVGPFGTFIGMINKNWDGWTTFLDNLEVVNPNVFRDEKQQYKVTLQTCERLASTSAYVDTDDHIATGYAKQILVLNGSDVVDIEHDQKLKKAFDQLSYHWRYEISQRRMTPLNASIKQFLEELHTKRYLDVTLRLPQATFEQVYLGDMAAGEQKTRLIMDEHPHSSLIEIEYFDLVKQQRIHQTLEVPNL” as the sequence, how does the protein production read?
**A.** failed

**Q.** For “MKTTRTCKINSITKEQTEALITLIRTFESAKRYSFNRLIEGESEKELIKKLQLKYLLNKRFCEDAVLQVQTILSSQKELLPVYLENNQKKLEKTLQKKMIMKVAGKTQKKFH”, which protein production is on record?
**A.** failed

**Q.** With “MKTVGVVLSGCGVLDGAEIHESVLTMLALDRAGAEVLFFAPDKPQLHVINHITGEIVAEERNVLVESARIARGLITPLSAADPEVLDALIVPGGFGAAKNLCDFAIKGGECSVEPDLYKLIQLMHKSGKPIGLMCISPVMLPKLLGKPIRLTIGNDPDTIDAIEIMGGEHVICPADDVVIDLENKVVTTPAYMLAGSISEAAKGIDKLVTKVLDLTE” as the sequence, how does the protein production read?
**A.** failed

**Q.** Which protein production does the source give for “MKTVNIGLIGAGRIGQLHASNIISSPYMELKAVSDVQLDHLKGTEIERSVEIMTTNPDELFSNRDIDAIFICSSTDTHAAFIKAAALAGKHIFCEKPISFHVTETKGALNIVNEAGVKFQVGFNRRYDKHFRRVQECVQAGAIGAPHIIRVSSRDPEAPPLSYVERSGGMFMDMTIHDFDMVRYLSGSEVTEVSVKAANLVDSRIGEVGDVDTAIITLMLENGAIAVIDNSRQAAYGYDQRVEVFGSLGSVSADNERKTNVQISTKDTVTLDLPKHFFLDRYEQAYKDEVAEFATAILEDQPLRCTGEDGYKAELLALAAKQSWLENRPVAVKDVEVLEEHAKSE” here?
**A.** failed

**Q.** With “MKVFFNKIPLALSSLVLALFSLSNQISQYTLFSQGIWLIAVFGFFLVLGRPIIGYRQTQEDLHNPVIASAFPSFFMAAFLFAGRLPLAQADLSIAWIVVLIGLYIAYIIFFSLRFLRPLVLEQVYPSWFVVYVGPAINLVTIPDSIPNSTKALILGLTGLATLALFPLIFWRMRRLAIPQPVLPILAILAAPLALLITSSIKSGQKPDTILLVGLLIFSQLFFFFALGLFTRLVNKGFVPLFAAFSFPLVNSINAFKAATTSLGLVNPATQLVYKVEFVFVLVIMTYLLYHFLKLLYKALIQALNTKKQAGSV” as the sequence, how does the protein production read?
**A.** failed

**Q.** With “MKVFIIGAAGGIGNRLSSLLHARGDAVSGMHRNLEQASKITDTGATAVLGDLIHNSTEELAELFRGHDAIVFSAGAHGTGQENTTLIDGAGLRKAADAASAANVSRFILVSAFPESSRGENTTENFEHYMKVKKSADVYLSHTDLDWVIVRPGVLQDEAGDGLVTAGLAINYGNVARDNVAAFIDEALHQPQLSKIIVELTDGSTPVAEAVERLIKLEHHHHHH” as the sequence, how does the protein production read?
**A.** not failed

**Q.** With “MKVGIDAGGTLIKIVQESQQGRSYETKLTTNISEVIAWLNANTFESISLTGGNAGVIAENLNVDATIFVEFDASSKGLGMLLKEQGHHIDEYIFANVGTGTSLHYFDGKQQRRVGGVGTGGGMIQGLGYLLSQITDYEALTNLAQSGDRDTIDLKVKHIYKDTEPPIPGELTAANFGNVLHNLDVDFSPANKLASVVGVVGEVITTMAITVARENKTENVVYIGSSFNNNPLLREVIEDYTVLRGFKPYYIENGAFSGALGAIYLN” as the sequence, how does the protein production read?
**A.** failed

**Q.** With “MKVKKWVTQDFPMVEESATVRECLHRMRQYQTNECIVKDREGHFRGVVNKEDLLDLDLDSSVFNKVSLPDFFVHEEDNITHALLLFLEHQEPYLPVVDEEMRLKGAVSLHDFLEALIEALAMDVPGIRFSVLLEDKPGELRKVVDALALSNINILSVITTRSGDGKREVLIKVDAVDEGTLIKLFESLGIKIESIEKEEGF” as the sequence, how does the protein production read?
**A.** not failed

**Q.** For “MKVLKFGGTSVGDAERIRSVARLITSVKGRKIIVLSAMAGTTNSLVEIASHLVKRNVAQAKEVVQVLREKYHREINALYKRPDTLSAAKKAVDSLLDSLGHMCDVEGFTLFEEKRVLIL”, which protein production is on record?
**A.** failed

**Q.** For “MKVQATFATLIALAAYFPAANAWKDCIIQRYKDGDVNNIYTANRNEEITIEEYKVFVNEACHPYPVILPDRSVLSGDFTSAYADDDESC”, which protein production is on record?
**A.** not failed
